In paper PMC6724696 (Molecular Biology of the Cell, 2019):
Where two headings read alike, the source gives them in different places. Where no end group is shown, it is not given here.

How the values were obtained:
Experiment in all cases: crystal structure
crystal structure [1] = target: the molecule itself
crystal structure [2] = target: the molecule itself; remark: listed apart in the source
crystal structure [3] = target: the molecule itself; remark: listed apart in the source

B1: 3H5I-Spc42^181–211 T193E,S195E (domain or fragment, Saccharomyces cerevisiae, UniProt P36094 181-211, looked up)
chain: SDQDSRLKAIERELEVLTNYVMRSEDGNNDR
Crystal structure [1]
  stoichiometry N: 3

B2: Spc42^246–305 (domain or fragment, Saccharomyces cerevisiae, UniProt P36094 246-305, looked up)
chain: SDDDIMMYESAELKRVEEEIEELKRKILVRKKHDLRKLSLNNQLQELQSMMDGDDNIKLD
modifications: also: selenomethionine (SeMet) in the crystals
Crystal structure [2]
  stoichiometry N: 2

B3: H6-Spc42^11–130-3K2N (SeMet) (domain or fragment, Saccharomyces cerevisiae, UniProt P36094 11-130, looked up)
chain: SSKSSRLYDDYYNIPYQYSNPTPMNRDYNDVGSRINADKLVPEEYKRNTEFINKAVQQNKELNFKLREKQNEIFELKKIAETLRSKLEKYVDITKKLEDQNLNLQIKISDLEKKLSDANS
modifications: selenomethionine (SeMet)
Crystal structure [3]
  binding result: binds
